For orientation: EC50 (read off the curve) means the concentration giving half of the maximal effect. A high value points to a need for much substance. What is called Kd is a measure of binding affinity in units of concentration. A lower Kd goes with tighter binding.

The text below walks through data of patent US20220162304A1.

Assay [1] concerns the target human CD79B antigen (coating antigen of the ELISA, construct not stated) (human) (UniProt P40259). Briefly: ELISA, plate coated with antigen at 1 ug/mL, serial antibody dilutions, OD450. A general note: ELISA stands for enzyme-linked immunosorbent assay.
For assay [2], the target named is fusion protein of human CD79B extracellular domain (ECD) and His tag (human CD79B ECD-His) (human) (UniProt P40259). Briefly: SPR (Biacore 8K; by Example 2 human CD79B-His immobilised on CM5 chip, antibody flowed over).
Sequence of fusion protein of human CD79B extracellular domain (ECD) and His tag (human CD79B ECD-His) (human) (P40259 29-159 limits assumed): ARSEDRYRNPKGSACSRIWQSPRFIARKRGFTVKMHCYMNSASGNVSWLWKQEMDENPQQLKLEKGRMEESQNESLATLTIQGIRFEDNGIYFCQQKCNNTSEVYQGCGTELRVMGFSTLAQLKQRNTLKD

Sequence of human CD79B antigen (coating antigen of the ELISA, construct not stated) (human) (P40259 29-159 limits assumed): as above

With SN8 (antibody), the EC50 (read off the curve) in assay [1] amounted to 0.1 nM. Also, in assay [2], the equilibrium dissociation constant (Kd) was 5.98 nM.
